What all share (assay): competition with [125I]glucagon, SPA, membranes of 293HEK cells expressing the receptor
Experiment [1] concerns the target T1, rat glucagon receptor (rat, UniProt P30082 28-485).
T1 construct: Cloned receptor expressed in 293HEK cells; also called rat GluR; rat GlucR
The procedure: (§1) A competitive receptor/ligand binding experiment is adapted to a scintillation proximity assay (SPA) format. Incubations are performed in clear bottom, opaque 96-well microplates. Compound is serially diluted 3-fold in binding buffer consisting of 25 mM Hepes, pH 7.4, 2.5 mM CaCl₂, 1 mM MgCl₂, 0.1% fatty acid free BSA, 0.003% tween-20 and Complete^R EDTA-free protease inhibitor tablets. […] Plates are sealed with adhesive sealing tape, mixed end over end, and incubated at room temperature for 12 hours. The radioactivity bound to the receptor (in close proximity to the WGA SPA bead) is quantified on a PE Life and Analytical Sciences Trilux Microbeta plate scintillation counter and expressed as counts per minute (CPM).

For experiment [2], the target named is T2, mouse glucagon receptor (mouse, UniProt Q61606 28-485).
T2 construct: Cloned receptor expressed in 293HEK cells; also called murine GluR; mouse GlucR
T2 chain: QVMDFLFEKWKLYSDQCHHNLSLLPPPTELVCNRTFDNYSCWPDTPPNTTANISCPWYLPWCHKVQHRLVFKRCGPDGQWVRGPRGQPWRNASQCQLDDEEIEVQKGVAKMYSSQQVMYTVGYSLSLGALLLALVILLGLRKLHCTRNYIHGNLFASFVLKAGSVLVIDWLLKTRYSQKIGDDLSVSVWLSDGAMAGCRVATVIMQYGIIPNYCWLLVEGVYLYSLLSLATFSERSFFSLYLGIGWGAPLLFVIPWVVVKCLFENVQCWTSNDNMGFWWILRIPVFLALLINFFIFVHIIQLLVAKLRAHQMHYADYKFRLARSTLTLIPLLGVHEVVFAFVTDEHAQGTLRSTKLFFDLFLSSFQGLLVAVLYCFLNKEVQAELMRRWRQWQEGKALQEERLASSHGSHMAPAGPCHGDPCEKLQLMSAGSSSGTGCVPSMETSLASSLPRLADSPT
On the procedure: as §1

Experiment [3] has as its target T3, human glucagon receptor (human, UniProt P47871 27-477).
T3 construct: Cloned receptor expressed in 293HEK cells; also called human GluR; human GlucR
On the procedure:
as §1

Experiment [4] concerns the target T4, cynomologous monkey glucagon receptor (cynomologous monkey, UniProt P47871 27-477 (human entry)).
T4 construct: Cloned receptor expressed in 293HEK cells; also called cyno GluR; cyno GlucR
T4 chain: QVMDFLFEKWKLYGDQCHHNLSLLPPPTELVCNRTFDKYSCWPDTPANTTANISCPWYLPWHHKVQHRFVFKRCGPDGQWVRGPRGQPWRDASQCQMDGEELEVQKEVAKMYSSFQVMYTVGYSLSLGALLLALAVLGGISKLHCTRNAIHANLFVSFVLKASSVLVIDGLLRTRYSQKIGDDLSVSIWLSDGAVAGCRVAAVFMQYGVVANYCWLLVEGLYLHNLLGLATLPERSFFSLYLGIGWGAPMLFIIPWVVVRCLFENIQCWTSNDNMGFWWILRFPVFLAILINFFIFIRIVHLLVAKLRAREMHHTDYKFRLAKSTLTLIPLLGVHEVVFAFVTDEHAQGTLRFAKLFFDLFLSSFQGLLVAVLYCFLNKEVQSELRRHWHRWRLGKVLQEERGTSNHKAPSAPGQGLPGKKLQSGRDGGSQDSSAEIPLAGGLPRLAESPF
The procedure:
as §1

The target in experiment [5] is T1, rat glucagon receptor. This is another data set of the same source.
Experiment [6] has as its target T2, mouse glucagon receptor.
The target in experiment [7] is T3, human glucagon receptor. This is another data set of the same source.
Experiment [8] concerns the target T4, cynomologous monkey glucagon receptor.

Read-outs that look alike come from different tables or passages of the source. A value given as a limit tells only on which side of the number the result lay.

B1: Fab fragment of antibody example 4 (Fab4) (Fab, V domains shown)
VH: QVQLQESGPGLVKPSETLSLTCTVSGDDITSGYHDWIRQPPGKGLEWIGYISYSGSTYYSPSLKSRVTISVDTSKNQFSLKLSSVTAADTAVYYCARPPGYYGFGPYALDYWGQGTLVTVSS
VL: DIQMTQSPSSLSASVGDRVTITCSASSSVSYIHWYQQKPGKAPKLLIYTTSYLAHGVPSRFSGSGSGTDFTLTISSLQPEDFATYYCQQRSTLPPTFGGGTKVEIKR
notes: Expressed in E. coli; Fab = VL+CL and VH+CH1 (Fc absent); not shown: His tag
On to B1, for which the Ki with rat glucagon receptor [1] is 3.3 nM; with mouse glucagon receptor [2], 2.43 nM; with human glucagon receptor [3], 2.9 nM; in experiment [4], 9.42 nM; with rat glucagon receptor [5], below 50 nM; with mouse glucagon receptor [6], below 50 nM. Besides, the Ki (with human glucagon receptor [7]; in experiment [8]) was below 50 nM each time.

B2: Antibody of example 4 (Ab4) (antibody, human IgG4 S228P, kappa, F234A L235A, V domains shown)
VH: B1 VH
VL: B1 VL
notes: Humanized full antibody with kappa light chain and modified human IgG4 Fc
Regarding B2, the Ki with rat glucagon receptor [1] was 1.24 nM; with mouse glucagon receptor [2], 0.83 nM; with human glucagon receptor [3], 1.34 nM; in experiment [4] it was 6 nM; with rat glucagon receptor [5] it was below 50 nM; with mouse glucagon receptor [6] it was below 50 nM. Moreover, the Ki (with human glucagon receptor [7]; in experiment [8]) was below 50 nM in each case.
